Columns and labels:
hPD-L1-his = molecular target: T1, hPD-L1-his (human, UniProt Q9NZQ7 19-238, limits assumed); assay: ELISA, hPD-L1-his coated, anti-human IgG (Fc-specific)-peroxidase detection
T1 construct: also called human PD-L1; not shown: his tag

[1] = molecular target: T2, human PD-L1 (ELISA coat, construct not stated) (human, UniProt Q9NZQ7 19-238, limits assumed); assay: ELISA, PD-L1 coated
T2 construct: also called human PD-L1 protein
Method: A 96-well microtiter plate was plated, coated with PD-L1, and incubated at 37° C. for 60 minutes. The solution in the wells was then discarded, and the wells were washed 3 times with washing buffer, and blocked with PBS containing 2% BSA for 60 minutes. After washed 3 times with washing buffer, each well was added with 100 μl of biotin-labeled IgG4 antibody, incubated at 37° C. for 30 minutes, washed 3 times with washing buffer, then added with humanized antibodies of different dilutions, and incubated at 37° C. for 1 hour. After washed 3 times with washing buffer, the cells were incubated with HPR-labeled mouse anti-human IgG (H+L) (diluted 1:10000 with washing buffer) at room temperature for 1 hour, washed 3 times with washing buffer, and then added with 100 μl of TMB substrate for development. After reacting for 30 minutes at room temperature, the reaction was terminated with 100 μl of 2 M hydrochloric acid solution and the absorbance was read at 450 nm.

PD-L1 on CHO cells = PD-L1 on CHO cells (human, UniProt Q9NZQ7 19-290); assay: cell-based or functional assay
PD-L1 on CHO cells, sequence (Q9NZQ7 19-290): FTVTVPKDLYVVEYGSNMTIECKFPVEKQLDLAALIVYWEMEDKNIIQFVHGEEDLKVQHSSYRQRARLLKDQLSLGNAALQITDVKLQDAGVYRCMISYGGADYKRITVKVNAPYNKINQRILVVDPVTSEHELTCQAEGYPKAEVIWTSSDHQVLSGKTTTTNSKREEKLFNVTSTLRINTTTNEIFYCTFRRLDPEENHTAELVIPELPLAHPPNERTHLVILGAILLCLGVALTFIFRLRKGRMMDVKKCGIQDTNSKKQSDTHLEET

[2] = molecular target: T3, human PD-L1 extracellular domain protein (human, UniProt Q9NZQ7 19-238, biotin (biotin-NHS, molar ratio 1:10) where used as biotin-labeled human PD-L1 (Examples 2, 3, 5, 12, 17)); assay: flow cytometry, inhibition of biotin-PD-L1 (1 µg/ml) binding to PD-1 on 293F cells
T3 construct: extracellular domain; About 75 kDa on SDS-PAGE; also called human PD-L1 recombinant protein; biotin-labeled human PD-L1
T3 sequence (Q9NZQ7 19-238): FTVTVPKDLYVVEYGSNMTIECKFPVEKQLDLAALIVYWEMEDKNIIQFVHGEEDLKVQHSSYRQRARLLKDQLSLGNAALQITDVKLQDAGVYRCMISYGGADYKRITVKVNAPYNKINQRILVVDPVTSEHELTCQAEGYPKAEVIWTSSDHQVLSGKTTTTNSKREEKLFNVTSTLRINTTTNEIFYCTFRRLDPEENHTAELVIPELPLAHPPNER

PD-L1 on 293F cells = molecular target: T4, PD-L1 on 293F cells (UniProt Q9NZQ7 19-290, limits assumed); assay: flow cytometry on 293F cells expressing PD-L1
T4 construct: whole, on cells
T4 sequence (Q9NZQ7 19-290 limits assumed): as the sequence (Q9NZQ7 19-290) above
Method: Antibody (humanized antibodies 30, 38) dilutions at different concentrations was added in a volume of 50 μl, mixed and incubated at room temperature for 30 min. The cells were washed twice with FACS buffer, contacted with 100 μl of goat anti-human IgG-PE antibody, and incubated for 30 min in the dark. FACS was performed after washing twice with FACS buffer.

[3] = molecular target: T3, human PD-L1 extracellular domain protein; assay: ForteBio (BLI)

T1 sequence (Q9NZQ7 19-238 limits assumed): as the sequence (Q9NZQ7 19-238) above
T2 sequence (Q9NZQ7 19-238 limits assumed): as the sequence (Q9NZQ7 19-238) above

Molecule	EC50 (hPD-L1-his) [µg/mL]	EC50 [1] [µg/mL]	EC50, Jurkat fluorescein (PD-1/NFAT-luciferase reporter) analysis (PD-L1 on CHO cells) [µg/mL]	IC50 [2] [µg/mL]	EC50 (PD-L1 on 293F cells) [µg/mL]	Kd [3] [pM]
durvaluma (antibody)	0.0216	–	–	–	–	–
humanized antibody 38 (antibody, V domains shown) VH: QGQLQESGPSLVKPSQTLSLTCTVSGDSITRGYWNWIRKPPGKGLEYIGYISYTGSTYSNLSLKSRVTISRDTSKNQYYLKLSSVTAADTAVYYCATSTGWLDPVDYWGQGTLVTVSS VL: DIQMTQSPSSLSASVGDRVTITCRASQNVDTSVAWFQQKPGKAPKALIYSASFRYSGVPSRFSGSGSGTDFTLTISSLQPEDFATYFCQQYYGYPFTFGQGTKLEIK	–	0.000837	0.082	0.889	0.348	–
humanized antibody 30 (antibody, V domains shown) VH: QGQLQESGPSLVKPSQTLSLTCTVSGDSITRGYWNWIRKHPGKGLEYIGYISYTGSTYSNLSLKSRVTISRDTSKNQYYLKLSSVTAADTAVYYCATSTGWLDPVDYWGQGTLVTVSS VL: DIVMTQSPDSLAVSLGERATINCKASQNVDTSVAWFQQKPGQPPKALIYSASFRYSGVPDRFSGSGSGTDFTLTISSLQAEDVAVYFCQQYYGYPFTFGQGTKLEIK	0.0111	0.000558	0.0782	0.647	0.287	–
clone 16 (murine antibody 16) (antibody, V domains shown, Murine hybridoma antibody) VH: EVQLQQSGPELVKPGASVKMSCKASGYTFTNYVIHWVKQTPGQGLEWIGYINPNIDGGSYNEKFNGKAKMTSDKSSSTVHMELRSLTYEDFAVYYCAKPRGSWGQGTLVTVSA VL: DIVLTQSPASLAVSLGQRATISCRASESVEFYGTSLMQWYQQKPGQPPKLLIYAASNVDSGVPARFSGSGSGTDFSLNIHPVEEDDIAMYFCQQGRHVPYTFGGGTKLEIK	–	–	–	–	–	500
clone 21 (murine antibody 21) (antibody, V domains shown, Murine hybridoma antibody) VH: EGQLQESGPSLVKPSQTLSLTCSVTGDSITRGYWNWIRKFPGNKFEYMGYISYTGSTYSNLSLKSRISITRDTSKNHYYLRLNSVTTEDTATYYCATSTGWLDPVDYWGQGTLVTVSA VL: DIVMTQSRKFMSTSVGDRASVTCKASQNVDTSVAWFQQKPGQSPKALIYSASFRYSGVPDRFTGSGSGTDFTLTISNVQSEDLAEYFCQQYYGYPFTFGSGTKLEIK	–	–	–	–	–	900

Source: patent US20190367618A1 (SHANGHAI JUNSHI BIOSCIENCES, published 2019)
